Assay: yeast display, Sf9 membrane polyspecificity reagent, FACS + sequencing; frameworks hold sequencing errors
In short: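 Synthetic nanobody libraries on Saccharomyces cerevisiae BJ5465 were galactose-induced for 36–48 hours, stained 1 hour at 4 °C with 10% biotinylated, detergent-solubilized Sf9 membrane reagent and enriched on streptavidin microbeads. FACS then separated cells into low and high (top ~1%) gates by anti-HA (expression) and streptavidin (reagent binding) fluorescence. Genes were colony-PCR amplified, MiSeq 2 × 250 sequenced and CDR-length filtered. A clone's polyreactivity label is that of its gate of origin.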
With “QDQLVETGGGLVQAGGSLRLSCAASGRIFAYNSMGWYRQAPGKERELVAAISWSGSSTYYADSVKGRFTISRDNAKNTVYLHMNCLKPEDTAVYYCAATPWYYYSTSYAYYYWGQGTQVTVSS” the “polyreactivity (PSR sort gate)” value was “high polyreactivity”.
With “QDQLVHSGGGLVQSGGSLRISCAASGFTFYLYGMGRYRQAPGKERDLDAAIDSTGSTNYADSVKGRFTISRDNAKNTVYLQMNSLKPEDTAVYYCAADFYLYYFRSPYDYWGQGTQVTVSS” the “polyreactivity (PSR sort gate)” value was “high polyreactivity”.
In the case of “QDQLVQSAGGLVQAGGSLRLSCAASGRTIRAYAMGWYRQAPGKEREFVAAITWGDGSTYYADSVNGRFTISRDNAKNTVYLQMKSLKPEDTAVYYCATVQSCRVRTYDYWGQGTQVSVSS”, the “polyreactivity (PSR sort gate)” value is reported as “high polyreactivity”.
In the case of “QDQLVQSGGGLVQAGGSLRLSCAASGFTFYYYAMGWYRQAPGKETELVAGISKSGGITYYADSVKGRFTISRDNAKNTVYLQMNSLKPEDTAVYYCAAAAWYQFFLYRYTYEYWGQGTQVTVSS”, the “polyreactivity (PSR sort gate)” value is reported as “low polyreactivity”.
With “QDQLVVSGGGLVQAGGSLRLSCAASGFIFYRYSMGWYSQEPGKEREVVASITRSGGSTYYAASVKGRFTISRDKAKNTLYLPMNSLKPVETAVYYCATAIRYFVSYDYWGQGTEVTVSS” the “polyreactivity (PSR sort gate)” value was “high polyreactivity”.
For “QDQRVDSGGGLVQAGGSLRLSCAASGSNFQWNAMGSYRHATGKERELVAAISGTGGNTYYADSVKGRFTISRDNAKNTVYLQMNSLKREDTAVYYCNTDYGEYYSWYLQWWYIPFDYWGQGTQVTVSS”, the “polyreactivity (PSR sort gate)” value was “low polyreactivity”.
For “QDQRVESGGGLDQAGGSLRLSCAASGSIFLVYAMGWYRQAPGKEMEFVAAITWSGGSTYYADSVKGRFTISRDIAKNTVYLQMNSLKPEDTAVYYCAVEIWIPTWYGLSGEYDYWGHGTQVTVSS”, the “polyreactivity (PSR sort gate)” value was “low polyreactivity”.
In the case of “QDQRVESGGGLVQAGGSLRLSCAASVRTVNFNVMGWYSQARGKERELVAAISKSTGSTFYADSVKGRFTMSRDNAKNTGYLQKNSLKPEDTAVYYCIAVRCYGSGRGYGYCGQGTQVTVSS”, the “polyreactivity (PSR sort gate)” value is reported as “high polyreactivity”.
With “QEQLLDSGGGLVQAGGSLRLSCAASGYFSSHILSWYRQGPGKVREFVDTITDGGTTDYADSVKGRFTISRDNAKNTVYLQMNSLNPQDTAVYYCAAVATYSYHFGYWGHGTQVTVSS” the “polyreactivity (PSR sort gate)” value was “high polyreactivity”.
With “QEQLLESGGALVQAGGSLRLSCMASGSILGDRMSWYRQAPGKEHELVATIYDGGITYYADSMKGRFTISRDNAKNTVYLQMNSLRPEDTAVYYCGASFEGYRYHVYCGQGTQVTVSS” the “polyreactivity (PSR sort gate)” value was “low polyreactivity”.
For “QEQLQESGGGLVQACGSLRLSCAASGYIFSHQYMGWYRQAPGKERELVASISPGATTNYADSVKGRFTISRDNAKNTVYLQMNSLKPEDTAVYYFAVYKILDRRLSYWGQGTQVTVSC”, the “polyreactivity (PSR sort gate)” value was “high polyreactivity”.
With “QEQLQESGGGLVQAGGSLRLSCAASGSISQAWYMGWYRQAPGKERELVAAINVGAITYYADSVKGRFSISRDNAKNTVYLPMNSLTPEDTGVYYCAVDQYSEAYYDYWGQGTQATVSS” the “polyreactivity (PSR sort gate)” value was “high polyreactivity”.
With “QEQLQESGGGLVQAGGSLRLSCAASGTISYAGPMGWYRQAPGKEREFVAGIGVGSNTNYADSVKGRYTIIRDNAKNTVYLQMNSLKPEDTAVYYCAVGGYAPLGRPYWGQGTQVTVSS” the “polyreactivity (PSR sort gate)” value was “low polyreactivity”.
For “QEQLQESGGGLVQAGGSLYLSCAASGNIFEYYDMGWYRQGKERELVAGISYGTNTNYAVSVKGRFTISRDIAKNTVYLQMNSLKPEDTAVYYCARRIGHGSRPYWLETWLYPYDYWGQGTQVTVSS”, the “polyreactivity (PSR sort gate)” value was “low polyreactivity”.
With “QEQLQESGGGLVQAGGTLRLSCSASGTISPLPAMGWYRQSPGKEREFVAGIDTGAITNYADSVKGRFTISRDNAKNTVYLQMNSLKPEDTAVYYCAVFPAAYDYYERYYTYWGQGTQVTVCS” the “polyreactivity (PSR sort gate)” value was “low polyreactivity”.
With “QEQLQESGGGQVQAGGSLLLSCAASGNIIPSYYMGWYRQAPGKERELVAAITYGTSTNYADSVKGRFTISRDNAKNTVFLQMISLKPVDTAVYYCAVDFNYGDPLVHWGQGTQVTVSS” the “polyreactivity (PSR sort gate)” value was “high polyreactivity”.
With “QEQLQESGGGQVQAGGSLLLSCAASGNIIRYYYMGWYRQAPGKERELVAAITYGTSTNYADSVKGRFTISRDNAKNTVYLQMNSLKPEDTAVYYCAVVVNYGDPLDNWGQGTQVTVSS” the “polyreactivity (PSR sort gate)” value was “high polyreactivity”.
In the case of “QEQLQETGGGLVQAGGSLRLICASSGSIFFVYGMGWSRQAPGKERELVAGINAGTNTNYADSVRGRFTISRDNAKYTVHLQMNSLKPEDTAVYYCAADGNGYQAHEYWGQGTQVTVSS”, the “polyreactivity (PSR sort gate)” value is reported as “high polyreactivity”.
With “QEQLVESGGGLVQAGGSLRLSCAASGNTFSYNAMGWYRQAPGKEREVVAAISSRGVRTYYADSVKGRFTISRDNAKNTVYLQMNSLKPEDTAVYYCAADLWDWAYDYWGQGTQVTVSS” the “polyreactivity (PSR sort gate)” value was “high polyreactivity”.
In the case of “QEQQQESGGGQLQAGGSLLLSCAASGNIIRYYYMGWYRQAPGKERELVAAITYGTSTNYADSVKGRFTISRDNAKYSVYLQMISLKPEDTAVYYCAVDVNYGDPLDNWGQGTQVTVSS”, the “polyreactivity (PSR sort gate)” value is reported as “high polyreactivity”.
For “QFHHVESGGGLVQAGGSLRLTCAATGIIILGNAKGWYRQAPGKERELVATITSGGTTNYADSVKGRFTISRDNAKNTVYLQMNSLIPEDTAVYYCNKRSYDQQEYEYDYWGQGTQVTVSS”, the “polyreactivity (PSR sort gate)” value was “low polyreactivity”.
In the case of “QFHLVESGGGIVQAGGSLRLSCAASGFTFAYYAMGRNRQAPGKERELVAAISSGGRTYYADSVKGRFTISRDNAQNTVYLQLNSLKPEDTAVYYCKTVPYYDALTYPFDSWGQGTQVTVSS”, the “polyreactivity (PSR sort gate)” value is reported as “low polyreactivity”.
With “QFHLVESGGGLVQAGGSLRLSCAASGRNLVRYAMGCYRQAPGKERELVAAISKSGGSTYYADSVKGRFTISRDNAKNTVYLQMNSLKPEDTAVYYSNALVRRRPGYIRYDYWGQGTQVTVSS” the “polyreactivity (PSR sort gate)” value was “low polyreactivity”.
With “QFHLVESGGGLVQAGGSLRLSCAASGSIFNEYAMGWYRQAPGKERELVAAITNISGRKYYADSVKGRFTISRDNAKNTVYLQMNSLKPEDTAVYYCNARRTYTRPYIHSVYNYYYWGQGTEVTVSS” the “polyreactivity (PSR sort gate)” value was “high polyreactivity”.
With “QFQLEESGGGLVQAGGSLRLSCAASGITFVDYAMGWYRQAPGKERELVAAITTGGSTNYADSVKGRFTISRDNAKNTVYLQMNSLKPEDTAVYYCNKRPVILYDYWGQGTQVTVSS” the “polyreactivity (PSR sort gate)” value was “low polyreactivity”.
With “QFQLEESGGGLVQAGGSLRLSCAASGSTFWYNAMVWYIQATGKEMELVAAISSSGGSTYYADSVKGRFTISRDNAKYTVYLQMNSLKPEDSAVYYCNTRYVYTRGGTLKRDYLGQGTQVTVSS” the “polyreactivity (PSR sort gate)” value was “high polyreactivity”.
In the case of “QFQLEYSGGGLVQAGGSLRLSFASSGSTLARNAMGWYRQATVKERELVPSINGRTTRTYYADSVKGRFTISRDNAKNTVYLQMNSLKPEDTAVYYCAADPPGYVYGKRYYWGQGTQVTVSS”, the “polyreactivity (PSR sort gate)” value is reported as “high polyreactivity”.
With “QFQLLESGGGLVQAGGSLRLSCAASGFISDVYAMGWYRQAPGKERELDAVITWRGSTYYADSVKGSFTISRDNAKNTVYLQMNSLKPEDTALYYCAAESQGDWAFDYWGQGTQVTVSS” the “polyreactivity (PSR sort gate)” value was “low polyreactivity”.
With “QFQLVDSGGGLVQAGASLRLSCAASGFIFEWYTIGWSREAPGTAREFVARISSDGSTTYADSVKGRFTSSRDNAKNTVYLQMNSLKPEDTAVYYCADDVSYPGQKYIFDDWGQCTQVTVSS” the “polyreactivity (PSR sort gate)” value was “low polyreactivity”.
In the case of “QFQLVDSGGGLVQAGGSLRLSCAASGRIFSTNAMGWYRLAPGKEWELDAAINWSTGSYVLRRSVKGRFTISRDNAKNTVYLQMNSLKTEDTAVYYCAARVTVVGDYYWGQGTQVTVSS”, the “polyreactivity (PSR sort gate)” value is reported as “high polyreactivity”.
In the case of “QFQLVDSGGGLVQAGGSLRLSCAASGSTFYWYTMGWYREAPGKERELVATITSVGRTNYADSVKGRFTISRDNAKNTVYLEMNSLKPEDTAVYYCAASKARWPRGGSKYYDWGQGTQVTVSS”, the “polyreactivity (PSR sort gate)” value is reported as “high polyreactivity”.
With “QFQLVDSGGGLVQAGGSLRLSCAATGSTQPGYAMGWYRQAPGKERELVAAITSRGGTTYYADSVKGRFTISCDNAKNTVYLQMNSLKPEDTAVYYCAPYTSYASDYWGQGTQVTVSS” the “polyreactivity (PSR sort gate)” value was “high polyreactivity”.
In the case of “QFQLVESGGALVQAGGSLRLSCAASGLIFGRYAMGWYRQAPGNERELVAAISWRGGSTFYADSVKGRFTISRDNAKNTVYLQMNSLKPEDTAVYYCNARYYPARVRTYDHWGQGTQVTVSS”, the “polyreactivity (PSR sort gate)” value is reported as “high polyreactivity”.
In the case of “QFQLVESGGGFVQAGGSLRLSCAASGRIFYRYAMGCYSQAPGKERELVAAITWRGGSTYYADSVKGRFTISRDNANNTVYLQMNSLKPEDTAVYYCAAAAYGVPWRSYLGVFKSHMDYWGQGTQVTVSS”, the “polyreactivity (PSR sort gate)” value is reported as “high polyreactivity”.
With “QFQLVESGGGLDQAGGSLRISCAPSGITFEYYTMGLYRQAPGKEIEFVAAITQGGGTTYYADSVKGRFTISRDNEKNTVYLQMNSLKPEDTAVYYCAAYVGYLLLYYPTYYYWGQGTQVTVSS” the “polyreactivity (PSR sort gate)” value was “low polyreactivity”.
In the case of “QFQLVESGGGLDQAGGSLRLICAASGITFDTNLMGWYRQAPGKERELVAAISARGGSTYYADSVKGRFTISRDNAKNTVYLQMNSLKPEDTAVYYCNAVIRPWQSYYYWGQGTQVTVSS”, the “polyreactivity (PSR sort gate)” value is reported as “high polyreactivity”.
For “QFQLVESGGGLVHAGGRLRLSCAASGITFVTYAMGWYRQAPGKERELVAAISRSGGRPYYADSVKGRFTISRDNATNTDYLQMNSLKPEDTAVYYCAAERKNKYDYWGQGTQVTVSS”, the “polyreactivity (PSR sort gate)” value was “high polyreactivity”.
With “QFQLVESGGGLVHAGGSLRLICAASGRILYKYAMGWYRQAPGKERELVAAISGSGGRTYYADSVKGRFTISRDNAKNTVYLQMNSLKPEDTPVYYCAAVHPFRHVMYDYWGQGTQVTVSS” the “polyreactivity (PSR sort gate)” value was “low polyreactivity”.
With “QFQLVESGGGLVQAGGRLRLSCAASGRIFQLYTMGWYRQAPGKEREFVASISFITGRTYYADSVKGRFTISRDNAKKTVYLQMNSLKPEDTAVYYCNTRYDGGFDSWGQGTQVTVSS” the “polyreactivity (PSR sort gate)” value was “high polyreactivity”.
With “QFQLVESGGGLVQAGGSIRLSCAASGSTFTIYAMGWYRQAPGKERELVAAISGTGGTKYADSVKGRFTISRDNAKNTVYLQMTSLKPEDTAVYYCAARYMLWDGDSWTEFDYWGQGTQVTVSS” the “polyreactivity (PSR sort gate)” value was “low polyreactivity”.
In the case of “QFQLVESGGGLVQAGGSLRLRCAASGLIIKKYTMGWYRQAPGKEMELVASISKSGGSTYYADSVKGRFTISRDNAKNTVYLQMNSLKPEDTAVYYCNRVTHYIRFDYWGQGTQVTVSS”, the “polyreactivity (PSR sort gate)” value is reported as “low polyreactivity”.

Source: the nanobody polyreactivity screen of Harvey et al. (2022)
